# Test results reported in patent US20190300967.
# System: high-mobility group box 1 (HMGB1)
# Sequence (chain, as listed by the source): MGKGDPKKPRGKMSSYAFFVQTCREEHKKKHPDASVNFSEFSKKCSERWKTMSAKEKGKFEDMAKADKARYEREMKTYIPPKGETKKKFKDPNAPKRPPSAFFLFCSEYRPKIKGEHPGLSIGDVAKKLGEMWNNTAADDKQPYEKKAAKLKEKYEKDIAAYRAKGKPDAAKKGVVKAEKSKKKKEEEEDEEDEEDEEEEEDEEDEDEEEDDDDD
substance,measurement,value
MAGE-A3/6-TRIM28 E3 ubiquitin ligase,in vitro ubiquitination reactions on protein microarrays containing >9000 recombinant proteins (screen for direct substrates of MAGE-A),"As a significantly ubiquitinated target of the MAGE-TRIM28 complex, high-mobility group box 1 (HMGB1) emerged"
